How the values were obtained:
MS2 coat protein [1] = assay: apparent KD of MS2 coat protein, switch OFF state (with FMN for OFF switches, without FMN for ON switches); designed switch direction (-1 OFF switch, 1 ON switch): -1; higher = weaker reporter binding; conditions: FMN input: 0 or 200 uM; Eterna round: R93 (includes R88 designs)
In short: (§1)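 Each design's apparent KD comes from the median of binding-curve fits to its normalised clusters. Those clusters carried RNA switches transcribed on-chip from Illumina sequencing clusters. SNAP-549-labelled MS2 coat protein was titrated onto them in twofold steps (0.7 or 1.5 nM to 3 µM; per step 0.8–1.5 h down to 10–20 min). Conditions were 100 mM Tris-HCl pH 7.5, 80 mM KCl, 4 mM MgCl2, without or with constant ligand.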

MS2 coat protein [2] = assay: apparent KD of MS2 coat protein, switch ON state; designed switch direction (-1 OFF switch, 1 ON switch): -1; higher = weaker reporter binding; conditions: FMN input: 0 or 200 uM; Eterna round: R93 (includes R88 designs)
In short: as §1

MS2 coat protein [3] = assay: apparent KD of MS2 coat protein; designed switch direction (-1 OFF switch, 1 ON switch): 1; higher = weaker reporter binding
In short: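 Three titration conditions were used: no input, 200 uM small-molecule ligand, and an oligonucleotide input. In each, SNAP-549-labelled MS2 coat protein was raised from 0.7 or 1.5 nM, doubling, to 3 µM over designed RNA switches transcribed on Illumina chips by stalled E. coli RNA polymerase. Curve fits of normalised cluster fluorescence gave values whose per-design median over clusters is the apparent KD.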

[4] = Eterna round: R95, input ligand: FMN 200 uM
[5] = Eterna round: R95, input ligand: microRNA oligo, concentration not stated
[6] = Eterna round: R95, input ligand: none
[7] = input ligand: microRNA oligo, concentration not stated

Sequence	apparent KD of MS2 coat protein (MS2 coat protein [1])	apparent KD of MS2 coat protein (MS2 coat protein [2])	apparent KD of MS2 coat protein (MS2 coat protein [3]; [7])	also measured
AACAGGACAGGAUAUACAUGAGGAUCACCCAUGUGAAGAUUAAGAAGAAACCCACAAAGUAGAAGGGUCCUGGA [Ruby 93]	51 nM	25 nM		
GAAGAACAUGAGGAUCACCCAUGUCAGGAUAUGAAUAACGGAAUAAUACGUUAUGGAAUCAGAAGGGACAAGAA [Ex 1 May 52]	59.4 nM	48.9 nM		
AAGAAGGUAGGAUAUACUAACGAAACUAAUGCAUAGAUAAAACAUGAGGAUCACCCAUGUAGAAGGGCCAGAAU [JR_Exc002_Sub015]	26.6 nM	43.8 nM		
AAGAAGUGAGGAUAUAGUUGCACUAGCUAAUGCUAGUGCAACUAGAAGGCACAUGAGGAUCACCCAUGUAAAAG [Meechl Ex4 2]	46.7 nM	40.6 nM		
UCCUGACAUGAGGAUCACCCAUGUCAGGAUAUAGUAUGAAAAAAAAAAAAAAAAAAUACUAGAAGGGACAAGGG [Design 13: Super Stable Short Helix 4]	26.8 nM	18.5 nM		
AAAAAACAUGAGGAUCACCCAUGUAAGGAUAUGCUAAAAAAAAAAAAAAAAAAAAAAUGCAGAAGGUACAAAAA [water's exclusion 1 again]	40.2 nM	40.4 nM		
AGAAAGUCAGGAUAUACGAAUAAGAAUAAAGACGAGAUCGGACAUGAGGAUCACCCAUGUAGAAGGGACAAGAA [Diamond 17]	74.7 nM	121 nM		
GAAGUGUUAGGAUAUCGAUGAAUAAUAAAACAAAGGAACAUUGAGAAGGAACAUGAGGAUCACCCAUGUAAAAC [May 82]	25.6 nM	33.4 nM		
CUCAAGUUAGGAUAUUCAAGAAAAGAAGAGAAAGAAAAGAAGAAGAAGGAACAUGAGGAUCACCCAUGUAAGAA [EteRNA is fun!]	26 nM	53.8 nM		
CUCAUGUGAGGAUAUGUACAGAAAAAAAUGGGUGAAACUGUACAGAAGGCACAUGAGGAUCACCCAUGUGCCAA [EX4 376: S S Pseudoknot 1]	16.3 nM	52.2 nM		
AAGAAGGUAGGAUAUACUAGGGCAACUAAUGCAAAGAUAGAACAUGAGGAUCACCCAUGUAGAAGGGCCAGAAA [JR_Exc002_Sub402]	40.5 nM	35.7 nM		
AGUAUGCGAGGAUAUACAUGAGGAUCACCCAUGUGAGAGAUAAGAGUGAGAAAGACAAGUAGAAGGCGCGUACA [JL Lego Mod 25]	71.7 nM	78.4 nM		
AAAAAACAUGAGGAUCACCCAUGUUAGGAUAUGCUAUGGAAAAUAAAAAUAAAACAUAGCAGAAGGGACAAAAA [Denovo 1]	32 nM	21.3 nM		
AGCUAGUGAGGAUAUACAAGAAUAUAAACGAACAUAAAGGGACAUGAGGAUCACCCAUGUAGAAGGCACUAGCA [Diamond 73]	152 nM	42.6 nM		
ACAGCUGAAGGAUAUACUUGGAAAAAAAAAAAAAAAAAAAAACAUGAGGAUCACCCAUGUAGAAGGUCAGCUGA [Brourd - Exclusion 2 - Sub 2]		50.3 nM		
ACGCAGCUGGGUGAGGAUAUCGGUGGUAAAACAUGAGGAUCACCCAUGUCCGAAGCUCGGACUUCCGAGAAGGCGCCCGGCUGCG [Soinraesar] (puzzle: Same State 2)				apparent KD of MS2 coat protein (MS2 coat protein [3]; [4]): 11.4 nM; apparent KD of MS2 coat protein (MS2 coat protein [3]; [5]): 104 nM; apparent KD of MS2 coat protein (MS2 coat protein [3]; [6]): 103 nM
UGGUACAUGGGAGGAUAUCCUCAGGAGACAUGAGGAUCACCCAUGUAAUAUAAGCCGAAAGGCAUGGAGAAGGCCCAUGUACCU [JL SSNG1 3.81] (Eterna round: R96, puzzle: Same State NG 2)			150 nM	apparent KD of MS2 coat protein (MS2 coat protein [3]; input ligand: FMN 200 uM): 27.6 nM; apparent KD of MS2 coat protein (MS2 coat protein [3]; input ligand: none): 167 nM
CCGGUUUAUGGAGGAUAUGGAGCCUUAUUGGCUCCAGAAGGCUAAUAACAUGAGGAUCACCCAUGUCCGGCGGUCAAUAGACCG [Eli NG1ss - 57] (Eterna round: R96, puzzle: Same State NG 1)			69.8 nM	apparent KD of MS2 coat protein (MS2 coat protein [3]; input ligand: FMN 200 uM): 21.7 nM; apparent KD of MS2 coat protein (MS2 coat protein [3]; input ligand: none): 90.5 nM
UUAGAAUUGCAAGGAUAUCUAAUUUAGAUAGUAAGAGAAGGUGCUUGAUAGUUACAUGAGGAUCACCCAUGUUUUUGGGUUUAU [JR_SSNG1_Sub058] (Eterna round: R96, puzzle: Same State NG 1)			416 nM	
UGAAUAAUGAUAGGAUAUACAUGAGGAAUCCUCGUAGAAGGAUCAUGACAUGAGGAUCACCCAUGUAGCGCUCGAAAGAGCGCA [Mat - Same State NG 1 - JL mod - D52] (Eterna round: R96, puzzle: Same State NG 1)			54.9 nM	apparent KD of MS2 coat protein (MS2 coat protein [3]; input ligand: FMN 200 uM): 186 nM; apparent KD of MS2 coat protein (MS2 coat protein [3]; input ligand: none): 232 nM
CGAUCAUACUCAGGACGGAGAGUAGAGGAACAUGAGGAUCACCCAUGUAUGAGCUUUUUGCUCGUCAUGAACAGGAG [JR_SHM208a_Sub010] (puzzle: Sensor for hsa-mir-208a)				apparent KD of MS2 coat protein (MS2 coat protein [3]; [4]): 67.2 nM; apparent KD of MS2 coat protein (MS2 coat protein [3]; [5]): 59.7 nM; apparent KD of MS2 coat protein (MS2 coat protein [3]; [6]): 121 nM
AAACGACACACAGGAUAUCCGCCAUGCAGGCUCGGAGAAGGGUGUGAAACAUGAGGAUCACCCAUGUAGUCAAAAUAAUAAAGA [Arardixequ] (Eterna round: R96, puzzle: Same State NG 1)			62.9 nM	apparent KD of MS2 coat protein (MS2 coat protein [3]; input ligand: FMN 200 uM): 47 nM; apparent KD of MS2 coat protein (MS2 coat protein [3]; input ligand: none): 58.9 nM
UGAAUAGUUACAGGAUAUCAUGCGAAAAUUGCGUGAGAAGGGUGGGUGUUGUGCGCUAAGUGCCACAUGAGGAUCACCCAUGUU [SameState NG1 #38] (Eterna round: R96, puzzle: Same State NG 1)			7.1 nM	apparent KD of MS2 coat protein (MS2 coat protein [3]; input ligand: FMN 200 uM): 44.5 nM; apparent KD of MS2 coat protein (MS2 coat protein [3]; input ligand: none): 25.6 nM
GUAGCAUACCGAGGAUAUUCAUAAACAUGAGGAUCACCCAUGUAGGCCAGCAUUAGCUGGCCUUGGGAGAAGGCGGAAUGCUAC [Xeonanis - 20 Mod51] (Eterna round: R96, puzzle: Same State NG 2)			53.9 nM	apparent KD of MS2 coat protein (MS2 coat protein [3]; input ligand: FMN 200 uM): 17.4 nM; apparent KD of MS2 coat protein (MS2 coat protein [3]; input ligand: none): 77.4 nM
UAGUGCGUUAGAGGAUAUUCUAAAAAAAAAAAAAAGACAUGAGGAUCACCCAUGUAUGUACAUGGGAAGAAGGCUGAUGUGCUA [Omei SS(NG)2 B] (Eterna round: R96, puzzle: Same State NG 2)			352 nM	apparent KD of MS2 coat protein (MS2 coat protein [3]; input ligand: FMN 200 uM): 75.9 nM; apparent KD of MS2 coat protein (MS2 coat protein [3]; input ligand: none): 551 nM
GCUCGAUGAAAGUCCUACAUGAGGAUCACCCAUGUACGUGGGCAGGAUAUCUACAUGCAGAGUGUAGAGAAGGGCCCAUCGAGC [SameState NG3 #60] (Eterna round: R96, puzzle: Same State NG 3)			22.6 nM	apparent KD of MS2 coat protein (MS2 coat protein [3]; input ligand: FMN 200 uM): 18.6 nM; apparent KD of MS2 coat protein (MS2 coat protein [3]; input ligand: none): 34.9 nM
AGUCCAGCCUGAGCUGGACAAAAGCAUGUACAUGAGGAUCACCCAUGUUCAUGUACAAGCUUUUUGUUCGUCUUAAA [Zipper 52 - 9] (puzzle: Sensor for hsa-mir-208a)				apparent KD of MS2 coat protein (MS2 coat protein [3]; [4]): 179 nM; apparent KD of MS2 coat protein (MS2 coat protein [3]; [5]): 11 nM; apparent KD of MS2 coat protein (MS2 coat protein [3]; [6]): 431 nM
AGUCCAGGCUGACCUGGACAAAAGCAUGUACAUGAGGAUCACCCAUGUCAUGUACAAGCUUUUUGCUCGUCUUAAAA [Mat - hsa-mir-208a - Mod of JL - D16] (puzzle: Sensor for hsa-mir-208a)				apparent KD of MS2 coat protein (MS2 coat protein [3]; [4]): 701 nM; apparent KD of MS2 coat protein (MS2 coat protein [3]; [5]): 14.3 nM; apparent KD of MS2 coat protein (MS2 coat protein [3]; [6]): 637 nM
